Experiments:
MS2 coat protein [1] = experiment: apparent KD of MS2 coat protein; designed switch direction (-1 OFF switch, 1 ON switch): -1; higher = weaker reporter binding; conditions: Eterna round: R98
Protocol: (§1)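 RNA-MaP: designed FMN/MS2 RNA switches (84 nt design region) are transcribed on-chip within common flanks and titrated with SNAP-549-labelled MS2 coat protein (about 1-3000 nM) in 100 mM Tris pH 7.5, 80 mM KCl, 4 mM MgCl2, without or with 200 uM FMN. Median apparent KD per design; activation ratio = KD,OFF / KD,ON.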

MS2 coat protein [2] = experiment: apparent KD of MS2 coat protein; designed switch direction (-1 OFF switch, 1 ON switch): 1; higher = weaker reporter binding; conditions: Eterna round: R98
Protocol: as §1

AAAAUAAAGGCAGGAUAUACAUGAAUAAAUAAUAUAAUAUAUAAUAAAACAUGAGGAUCACCCAUGUAGAAGGGCCAAAAUAAA [LRO024_Exclusion NG 2]
apparent KD of MS2 coat protein (MS2 coat protein [1]; input ligand: FMN 200 uM): 0.107 µM
apparent KD of MS2 coat protein (MS2 coat protein [1]; input ligand: none): 0.0723 µM

AAUAUAAGAGCUGGAAAUAAACUCACAUGAGGAUCACCCAUGUAGGAUAUCAGCACGAUAAGUGCUGAGAAGGACAUCCAGCUC [Denovo 56]
apparent KD of MS2 coat protein (MS2 coat protein [1]; input ligand: FMN 200 uM): 0.0147 µM
apparent KD of MS2 coat protein (MS2 coat protein [1]; input ligand: none): 0.0164 µM

AAUAUGAGCUGGAAUAUAAAACUCACAUGAGGAUCACCCAUGUAGGAUAUCAGCACGAUAAGUGCUGAGAAGGACAACCAGCUC [Denovo 31]
apparent KD of MS2 coat protein (MS2 coat protein [1]; input ligand: FMN 200 uM): 0.0151 µM
apparent KD of MS2 coat protein (MS2 coat protein [1]; input ligand: none): 0.0168 µM

GCACUGGAUGUAGGAUAUCAGGACGAUAAGUCCUGAGAAGGACAUGAGGAUCACCCAUGUGCCAAAACCAGUGCAUAUAAUAUA [Denovo Exng1 33]
apparent KD of MS2 coat protein (MS2 coat protein [1]; input ligand: FMN 200 uM): 0.0169 µM
apparent KD of MS2 coat protein (MS2 coat protein [1]; input ligand: none): 0.0125 µM

GCUUGCGACGCAGGAUAUGGGUGCCUGCACACGAGGAUCACCCGUGUAGAGGAAGCGAAAAGCUCUCAGAAGGGCGUCGCAGGC [United States 5 - Jieux - Same State NG 2]
apparent KD of MS2 coat protein (MS2 coat protein [2]; input ligand: FMN 200 uM): 0.0207 µM
apparent KD of MS2 coat protein (MS2 coat protein [2]; input ligand: none): 0.0453 µM

GGAUCCAUCACAGGAUAUGCUGGACUUUGUCCAGCAGAAGGGUGAACAUGAGGAUCACCCAUGUAUUGGAUCCAUAUAUUUAAU [Denovo 35]
apparent KD of MS2 coat protein (MS2 coat protein [2]; input ligand: FMN 200 uM): 0.0941 µM
apparent KD of MS2 coat protein (MS2 coat protein [2]; input ligand: none): 1.29 µM

GGGUCGCUUGGAGGAUAUCCAACUAUCCUAGUUGGAGAAGGCCAAGCUACAGAGCUAAGCUUGGAAGUCACUUCGGACCCACAC [pwkr ssNG1 F9.4.5]
apparent KD of MS2 coat protein (MS2 coat protein [2]; input ligand: FMN 200 uM): 0.047 µM
apparent KD of MS2 coat protein (MS2 coat protein [2]; input ligand: none): 0.0156 µM

GGUCCAUCAUGAGGAUAUGGCACCUUAUUGGUGCCAGAAGGCAUGUGUAUUCACAUGAGGAUCACCCAUGUAAUAAAUUGGACC [Pyrimidine booster 8]
apparent KD of MS2 coat protein (MS2 coat protein [2]; input ligand: FMN 200 uM): 0.0215 µM
apparent KD of MS2 coat protein (MS2 coat protein [2]; input ligand: none): 0.0532 µM

GGUUGACGACAAUUACAUGAGGAUCACCCAUGUUGUGGGAUGCAGGAUAUGUGGUAUAUUAUUUAACAGAAGGGCAAUAAUUUU [JR_SSNG3_Sub063]
apparent KD of MS2 coat protein (MS2 coat protein [2]; input ligand: FMN 200 uM): 0.0547 µM
apparent KD of MS2 coat protein (MS2 coat protein [2]; input ligand: none): 0.0323 µM

GUUGCUUUCCGAGGAUAUUCCGGGCGUGGCUAUACAUGAGGAUCACCCAUGUGGCGGAAGCCUAGGGAGAAGGCGGGCUGCUUC [salish99_SSNG2_r2_230]
apparent KD of MS2 coat protein (MS2 coat protein [2]; input ligand: FMN 200 uM): 0.0163 µM
apparent KD of MS2 coat protein (MS2 coat protein [2]; input ligand: none): 0.0171 µM

UAGAUAUGGUGAGGAUAUGCAGAGGAUCACCCUGUAGAAGGCAUCAGGGUAGAAGGUGCAAGGAUCACCUGUAAGGAUAUAUCC [pwkr2 ssNG1 DX.29]
apparent KD of MS2 coat protein (MS2 coat protein [2]; input ligand: FMN 200 uM): 0.917 µM
apparent KD of MS2 coat protein (MS2 coat protein [2]; input ligand: none): 1.05 µM

UCAUACAUGAGGAUCACCCAUGACAUGAGGAUCACCCAUGUGCAGGAUAUACGUGAUAUAAUAUAGUAGAAGGGCAGACCAUAA [LRO005_Exclusion NG 3]
apparent KD of MS2 coat protein (MS2 coat protein [1]; input ligand: FMN 200 uM): 0.0591 µM
apparent KD of MS2 coat protein (MS2 coat protein [1]; input ligand: none): 0.0406 µM

UCUCUGGAAUACAUGAGGAUCACCCAUGUGUAAACAUUUACACAGGAUAUCGACGUCUGAGACGACGAGAAGGGUGGGCAGCAA [Rexele]
apparent KD of MS2 coat protein (MS2 coat protein [2]; input ligand: FMN 200 uM): 1 µM
apparent KD of MS2 coat protein (MS2 coat protein [2]; input ligand: none): 0.252 µM

UGAUCGCUUGGAGGAUAUCCAACUAUCCUAGUUGGAGAAGGCCAAGCUACAGAGCUAAGCUUGGAAGUCACUUCGAAUCAACAC [pwkr Chip 1 Control 70 ssNG1 F9.4]
apparent KD of MS2 coat protein (MS2 coat protein [2]; input ligand: FMN 200 uM): 0.0648 µM
apparent KD of MS2 coat protein (MS2 coat protein [2]; input ligand: none): 0.0536 µM

UGUUGUUACGCAGGAUAUUGCCAACAGGCGGUAGGAUAUCCGAAAGGAGAAGGACCGCCAACAGGCGAGAAGGGCGGGUUAACA [pwkr exNG2 2xF7 2FMN.10.1]
apparent KD of MS2 coat protein (MS2 coat protein [1]; input ligand: FMN 200 uM): 0.037 µM
apparent KD of MS2 coat protein (MS2 coat protein [1]; input ligand: none): 0.0352 µM
